The subject of one data set is p-gp. Also on record: method as in PMID 27499331. Particulars: cited from earlier work.
Data set [1] deals with organic anion transporters. Also on record: method as in PMID 27499331. Particulars: cited from earlier work.
Substrate in data set [2]: CC(=O)C1=C(O)[C@@H](N)[C@H]2Cc3c(c(O)c4c(O)c(C)ccc4c3C)C(=O)[C@@]2(O)C1=O
Put plainly: Three-point uptake (substrate assessment) in mOat3-overexpressing HEK293 cells. It is filed as in vitro ADME, mouse. Particulars: other: Michaelis–Menten fit, 0.1, 1 and 10 μM; 30.0 °C. The procedure: (§1) This is important to gain a better understanding of the underlying mechanisms of secretion into urine. Therefore, we assessed the amount of compound taken up by the vector and transporter cells at three different concentrations (1, 10, and 100 μM for mOat1 and mOct1; 0.1, 1, and 10 μM for mOat3) and at two different incubation periods (1 and 5 min for mOat1 and mOct1; 5 and 10 min for mOat3).
The incubation buffer contained CHD and CDCHD in a final concentration of 0.1, 1, and 10 μM. After 5 and 10 min, the incubation was terminated. In addition, the probe inhibitor probenecid (100 μM) was added in one concentration to 10 μM CHD and CDCHD, respectively, and after 5 and 10 min, the incubation was stopped. Inhibition of mOat3-mediated ^3H-ES (1 μM) uptake by 100 μM probenecid was performed as a control experiment. After 1 min, the incubation was terminated. […]
First, a calibration curve was prepared by spiking different concentrations of CHD and CDCHD into the cell matrix. […] Samples were analyzed using an Agilent 1290 Infinity II HPLC system coupled to an AB Sciex QTrap6500plus mass spectrometer. […]
(§2) For statistical testing of differences in uptake ratio or for the inhibitory effect, an ordinary one-way ANOVA test was performed using GraphPad Prism 9.5.1 software. […] Michaelis–Menten kinetics were determined using the Michaelis–Menten algorithm of GraphPad Prism 9.5.1 software. […]

Substrate in data set [3]: CC(=O)C1=C(O)[C@@H](N)[C@H]2Cc3c(c(O)c4c(O)c(C)ccc4c3C)C(=O)[C@@]2(O)C1=O
Put plainly: Three-point uptake (substrate assessment) in mOat1-overexpressing HEK293 cells. It is filed as in vitro ADME, mouse. Particulars: other: Michaelis–Menten fit, 1, 10 and 100 μM; 30.0 °C. The procedure:
as §1
(§3) The incubation buffer contained CHD and CDCHD in a final concentration of 1, 10, and 100 μM. After 1 and 5 min, the incubation was terminated. In addition, the probe inhibitor probenecid (100 μM) was added in one concentration to 10 μM CHD and CDCHD, respectively, and after 1 and 5 min, the incubation was stopped. Inhibition of mOat1-mediated ^3H-PAH (10 μM) uptake by 100 μM probenecid was performed as a control experiment. After 1 min, the incubation was terminated. All experiments were conducted in triplicate.
(§4) First, a calibration curve was prepared by spiking different concentrations of CHD and CDCHD into the cell matrix. Caffeine was used as an internal standard. In addition, quality control samples (QCs) were prepared for CHD and CDCHD in a cell matrix. The following extraction procedures were used: 300 μL of acetonitrile/water (1:1) is added to the cell pellet (sample or calibration/QC sample) for 15 min at 2000 rpm on an Eppendorf MixMate vortex mixer. 10 μL of this extracted sample is used for further analysis. 10 μL of the extracted cell sample is further extracted with 25 μL of a mixture of methanol/acetonitrile (2:1) containing 12.5 ng/mL caffeine as an internal standard (on ice) for 5 min at 2000 rpm on an Eppendorf MixMate vortex mixer. Then, samples were spun down at 15,870 × g for 10 min. Supernatants were transferred to standard HPLC glass vials. Samples were analyzed using an Agilent 1290 Infinity II HPLC system coupled to an AB Sciex QTrap6500plus mass spectrometer. LC conditions were as follows: column: Agilent Zorbax Eclipse Plus C18, 50 × 2.1 mm, 1.8 μm; temperature: 30°C; injection volume: 5 μL per sample; flow rate: 700 μL/min. Samples were run under the following conditions. Solvents: A: 100% water +0.1% formic acid; solvent B: 100% acetonitrile +0.1% formic acid. The gradient for CDCHD was as follows: 99% A at 0 min, 99% A until 0.1 min, 99–90% A from 0.1 to 1.0 min, 90–50% A from 1.0 to 2.4 min, 50–35% A from 2.4 to 2.7 min, 35–0% A from 2.7 until 4.5 min, 0% A until 5.5 min, 0–99% from 5.5 to 5.7 min, 99% A until 6.0 min. […]
as §2

Substrate in data set [4]: Cc1ccc2c(C)c3c(c(O)c2c1O)C(=O)[C@@]1(O)C(=O)C(C(N)=O)=C(O)[C@@H](N)[C@H]1C3
The description is as above. It is filed as in vitro ADME, mouse. Particulars: other: Michaelis–Menten fit, 1, 10 and 100 μM; 30.0 °C. The protocol: as §1, §3, §4, §2

Substrate in data set [5]: CC(=O)C1=C(O)[C@@H](N)[C@H]2Cc3c(c(O)c4c(O)c(C)ccc4c3C)C(=O)[C@@]2(O)C1=O
The data set can be described thus: Three-point uptake (substrate assessment) in mOct1-overexpressing HEK293 cells. It is filed as in vitro ADME, mouse. Particulars: other: Michaelis–Menten fit, 1, 10 and 100 μM; 30.0 °C. The procedure:
as §1
(§5) The incubation buffer contained CHD and CDCHD in a final concentration of 1, 10, and 100 μM. After 1 and 5 min, the incubation was terminated. In addition, the probe inhibitor decynium22 (50 μM) was added in one concentration to 10 μM CHD and CDCHD, respectively, and after 1 and 5 min, the incubation was stopped. Inhibition of mOct1-mediated ^3H-MPP (10 μM) uptake by 50 μM decynium22 was performed as a control experiment. After 1 min, the incubation was terminated. All experiments were conducted in triplicate.
(§6) First, a calibration curve was prepared by spiking different concentrations of CHD and CDCHD into the cell matrix. Caffeine was used as an internal standard. In addition, quality control samples (QCs) were prepared for CHD and CDCHD in a cell matrix. The following extraction procedures were used: 300 μL of acetonitrile/water (1:1) is added to the cell pellet (sample or calibration/QC sample) for 15 min at 2000 rpm on an Eppendorf MixMate vortex mixer. 10 μL of this extracted sample is used for further analysis. 10 μL of the extracted cell sample is further extracted with 25 μL of a mixture of methanol/acetonitrile (2:1) containing 12.5 ng/mL caffeine as an internal standard (on ice) for 5 min at 2000 rpm on an Eppendorf MixMate vortex mixer. […] Samples were analyzed using an Agilent 1290 Infinity II HPLC system coupled to an AB Sciex QTrap6500plus mass spectrometer. […]
as §2

Substrate in data set [6]: Cc1ccc2c(C)c3c(c(O)c2c1O)C(=O)[C@@]1(O)C(=O)C(C(N)=O)=C(O)[C@@H](N)[C@H]1C3
Described as above. It is filed as in vitro ADME, mouse. Particulars: other: Michaelis–Menten fit, 1, 10 and 100 μM; 30.0 °C. The procedure:
as §1, §5, §6, §2

Results on 4 molecules are retold here after paper PMC11249637, “Interaction of the Atypical Tetracyclines Chelocardin and Amidochelocardin with Renal Drug Transporters” (ACS Pharmacology & Translational Science, 2024).

Where “and” joins values, the source holds several entries; their conditions need not be identical. Equal values may be shown once.

Consider `CN(C)c1cc(CNCC(C)(C)C)c(O)c2c1C[C@H]1C[C@H]3[C@H](N(C)C)C(O)=C(C(N)=O)C(=O)[C@@]3(O)C(O)=C1C2=O` [omadacycline], for which the Km with p-gp is ~82 µM. For the same molecule, the “substrate or inhibitor of organic anion transporters (in words)” value in data set [1] is reported as “neither a substrate nor an inhibitor”.

B1: mOat3 (Mus musculus) (protein)
chain: MTFSEILDRVGSMGPFQYLHVTLLALPILGIANHNLLQIFTATTPDHHCRPPPNASLEPWVLPLGPNGKPEKCLRFVHLPNASLPNDTQGATEPCLDGWIYNSTRDTIVTEWDLVCGSNKLKEMAQSVFMAGILVGGPVFGELSDRFGRKPILTWSYLLLAASGSSAAFSPSLTVYMIFRFLCGCSISGISLSTIILNVEWVPTSTRAISSTTIGYCYTIGQFILPGLAYAVPQWRWLQLSVSAAFFIFSLLSWWVPESIRWLVLSGKFSKALKTLQRVATFNGKKEEGEKLTVEELKFNLQKDITSAKVKYGLSDLFRVSILRRVTFCLSLAWFATGFAYYSLAMGVEEFGVNIYILQIIFGGVDIPAKFITILSISYLGRRITQGFLLILAGVAILALIFVSSEMQLLRTALAVFGKGCLSGSFSCLFLYTSELYPTVLRQTGMGISNIWARVGSMIAPLVKITGELQPFIPNVIFGTMTLLGGSAAFFLLETLNRPLPETIEDIQDWYQQTKKTKQEPEAEKASQTIPLKTGGP
notes: expressed in transfected cells; host or cells: HEK293
For the molecule B1, in data set [2], the Km is 6.1 µM and 6 µM; the Vmax worked out at 26.42 nM/min.

B2: mOat1 (Mus musculus) (protein)
chain: MAFNDLLKQVGGVGRFQLIQVTMVVAPLLLMASHNTLQNFTAAIPAHHCRPPANANLSKDGGLEAWLPLDKQGRPESCLRFPFPHNGTEANGTGVTEPCLDGWVYDNSTFPSTIVTEWNLVCSHRAFRQLAQSLFMVGVLLGAMMFGYLADRLGRRKVLILNYLQTAVSGTCAAYAPNYTVYCIFRLLSGMSLASIAINCMTLNMEWMPIHTRAYVGTLIGYVYSLGQFLLAGIAYAVPHWRHLQLAVSVPFFVAFIYSWFFIESARWYSSSGRLDLTLRALQRVARINGKQEEGAKLSIEVLQTSLQKELTLNKGQASAMELLRCPTLRRLFLCLSMLWFATSFAYYGLVMDLQGFGVSMYLIQVIFGAVDLPAKFVCFLVINSMGRRPAQLASLLLAGICILVNGIIPRGHTIIRTSLAVLGKGCLASSFNCIFLYTGELYPTMIRQTGLGMGSTMARVGSIVSPLISMTAEFYPSIPLFIFGAVPVAASAVTALLPETLGQPLPDTVQDLKSRSRGKQKQQQLEQQKQMIPLQVSTQEKNGL
notes: as for B1
As for B2, in data set [3], the Km was determined as 65.08 µM and the Vmax was determined as 82.38 nM/min. Besides, in data set [4], the Km was determined as 39.64 µM and the maximal velocity (Vmax) is 11.48 nM/min.

B3: mOct1 (Mus musculus) (protein)
chain: MPTVDDVLEHVGEFGWFQKQAFLLLCLISASLAPIYVGIVFLGFTPDHHCRSPGVAELSQRCGWSPAEELNYTVPGLGSAGEASFLSQCMKYEVDWNQSTLDCVDPLSSLAANRSHLPLSPCEHGWVYDTPGSSIVTEFNLVCGDAWKVDLFQSCVNLGFFLGSLVVGYIADRFGRKLCLLVTTLVTSLSGVLTAVAPDYTSMLLFRLLQGMVSKGSWVSGYTLITEFVGSGYRRTTAILYQVAFTVGLVGLAGVAYAIPDWRWLQLAVSLPTFLFLLYYWFVPESPRWLLSQKRTTQAVRIMEQIAQKNRKVPPADLKMMCLEEDASERRSPSFADLFRTPSLRKHTLILMYLWFSCAVLYQGLIMHVGATGANLYLDFFYSSLVEFPAAFIILVTIDRIGRIYPIAASNLVAGAACLLMIFIPHELHWLNVTLACLGRMGATIVLQMVCLVNAELYPTFIRNLGMMVCSALCDLGGIFTPFMVFRLMEVWQALPLILFGVLGLSAGAVTLLLPETKGVALPETIEEAENLGRRKSKAKENTIYLQVQTGKSPHT
notes: as for B1
Consider B3, for which, in data set [5], the Km is 8.91 µM and 8.9 µM; the maximum rate (Vmax) is recorded as 49 nM/min. Further, the Km in data set [6] worked out at 55.2 µM.

As a reminder, the Km is the concentration of substrate that gives half-maximal velocity. The Vmax is the top rate of the reaction or transport when substrate is in excess.
